This note sets out measurements from US20220064276A1 (SCHOLAR ROCK, published 2022).

The target of test [1] is T1, human LRRC33-proTGFβ1 complex (human, UniProt Q86YC3 19-650; P01137 30-390, limits assumed).
T1 construct: Exemplary entries; also called huLRRC33 proTGFb1; HuLRRC33-ProTGFb1
The test is described as follows: Octet, antibody immobilized.

The target in test [2] is T2, human GARP-proTGFβ1 complex (human, UniProt Q14392 18-627; P01137 30-390, limits assumed).
T2 construct: Exemplary entries; also called Hu GARP-proTGFβ1; huGARP proTGFb1
The test is described as follows: Octet (bio-layer interferometry), response at 200 nM antigen; 0.1 nm cutoff designates meaningful binding. As to the method:
This experiment was performed at 200, 100, 50, and 25 nM human GARP proTGFb1 and human LTBP1 proTGFbl. […] Surface plasmon resonance (SPR)-based assays
(Biolayer interferometry detects binding as a change in optical thickness at a sensor tip.)

Test [3] concerns the target T3, mouse LTBP1-proTGFβ1 complex (mouse, UniProt Q8CG19 339-1712; P04202 30-390). The test is described as follows: cell-based or functional assay.
Test [4] concerns the target LTBP-proTGFβ1: transfected human proTGFβ1 presented by endogenous LTBP1/3 of LN229 cells (human). Nature of the test: cell-based or functional assay.
Test [5] deals with T4, human LTBP1-proTGFβ1 complex (human, UniProt Q14766 347-1721; P01137 30-390).
T4 construct: Large latent complex: one presenting molecule disulfide-linked to a proTGFβ1 dimer; also called Hu LTBP1-proTGFβ1; huLTBP1 proTGFβ1
T4 sequence (P01137 30-390 limits assumed, one chain of several): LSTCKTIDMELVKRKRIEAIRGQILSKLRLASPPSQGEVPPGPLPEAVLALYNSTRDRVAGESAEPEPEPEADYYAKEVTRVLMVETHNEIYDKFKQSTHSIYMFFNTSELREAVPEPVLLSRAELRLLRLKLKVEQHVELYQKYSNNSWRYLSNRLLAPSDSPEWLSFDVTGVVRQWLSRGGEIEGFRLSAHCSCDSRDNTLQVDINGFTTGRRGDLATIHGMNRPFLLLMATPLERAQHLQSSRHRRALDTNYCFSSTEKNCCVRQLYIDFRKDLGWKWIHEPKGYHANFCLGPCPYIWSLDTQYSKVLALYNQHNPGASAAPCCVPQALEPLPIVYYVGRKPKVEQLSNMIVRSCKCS
The test is described as follows: Octet BLI, IgG captured. As to the method:
(§1) LTBP complex-specific antibodies from the first round of affinity maturation/optimization (SR-AB14, SR-AB16, SR-AB17, SR-AB18, SR-AB19) were selected for a second round of affinity maturation/optimization (i.e., CDR-H3 mutagenesis as described herein) and particular progeny antibodies (SR-AB20, SR-AB21, SR-AB22, SR-AB23, SR-AB24, SR-AB25, SR-AB26, SR-AB27, SR-AB28, and SR-AB29) were assessed for their ability to bind various proTGFβ1 constructs. Binding affinities of the optimized antibodies were measured by Octet against human LTBP1-proTGFβ1, human LTBP3-proTGFbl, mouse LTBP1-proTGFβ1, mouse LTBP3-proTGFbl, and GARP-proTGFβ1 complexes, essentially as described in Example 6. […] The antigens were allowed to associate for 3 minutes followed by a 5-minute dissociation. Kinetics buffer (ForteBio®) was used throughout the experiment, and KD was determined using a 1:1 fitting model for each antibody antigen pair.

The target of test [6] is T3, mouse LTBP1-proTGFβ1 complex. The test is described as follows: Octet BLI, IgG captured. The method, then: as §1
For test [7], the target named is T5, human LTBP3-proTGFβ1 complex (human, UniProt Q9NS15 44-1303; P01137 30-390, limits assumed).
T5 construct: Exemplary entries; also called Hu LTBP3-proTGFβ1; huLTBP3 proTGFb1
T5 sequence (Q9NS15 44-1303 limits assumed, chain 1 of 2): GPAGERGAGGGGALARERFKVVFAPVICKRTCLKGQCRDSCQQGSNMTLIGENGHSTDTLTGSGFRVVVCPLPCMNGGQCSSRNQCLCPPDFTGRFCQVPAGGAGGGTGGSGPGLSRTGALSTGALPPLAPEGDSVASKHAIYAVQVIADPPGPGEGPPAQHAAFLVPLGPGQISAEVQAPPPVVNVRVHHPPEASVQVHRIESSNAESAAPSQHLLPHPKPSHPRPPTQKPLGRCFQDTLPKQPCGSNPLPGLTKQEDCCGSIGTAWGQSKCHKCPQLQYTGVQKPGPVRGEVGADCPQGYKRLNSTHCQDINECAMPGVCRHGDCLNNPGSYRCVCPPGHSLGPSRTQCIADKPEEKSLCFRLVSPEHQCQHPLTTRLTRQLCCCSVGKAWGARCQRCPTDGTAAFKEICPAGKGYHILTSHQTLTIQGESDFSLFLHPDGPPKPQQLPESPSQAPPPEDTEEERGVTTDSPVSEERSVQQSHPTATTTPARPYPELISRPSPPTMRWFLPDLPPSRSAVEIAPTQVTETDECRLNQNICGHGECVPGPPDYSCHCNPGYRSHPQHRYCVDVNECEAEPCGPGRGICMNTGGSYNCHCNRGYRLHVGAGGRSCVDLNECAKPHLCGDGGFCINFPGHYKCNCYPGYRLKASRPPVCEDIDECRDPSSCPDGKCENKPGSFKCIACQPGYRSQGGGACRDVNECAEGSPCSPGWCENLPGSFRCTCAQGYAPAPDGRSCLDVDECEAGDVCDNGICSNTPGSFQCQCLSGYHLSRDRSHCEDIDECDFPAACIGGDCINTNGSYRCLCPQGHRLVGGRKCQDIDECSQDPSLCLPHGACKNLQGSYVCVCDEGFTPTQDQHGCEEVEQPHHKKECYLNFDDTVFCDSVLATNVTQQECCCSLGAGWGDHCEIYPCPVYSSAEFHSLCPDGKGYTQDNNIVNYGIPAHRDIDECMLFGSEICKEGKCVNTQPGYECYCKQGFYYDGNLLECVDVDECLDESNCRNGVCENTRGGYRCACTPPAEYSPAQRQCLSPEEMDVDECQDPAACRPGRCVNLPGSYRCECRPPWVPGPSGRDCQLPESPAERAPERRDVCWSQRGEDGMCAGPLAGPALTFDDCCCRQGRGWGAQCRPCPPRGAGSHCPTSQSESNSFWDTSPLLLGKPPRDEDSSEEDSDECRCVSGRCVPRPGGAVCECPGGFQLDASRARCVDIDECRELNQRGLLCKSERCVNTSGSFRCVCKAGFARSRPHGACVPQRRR
T5 sequence (P01137 30-390 limits assumed, chain 2 of 2): as the sequence (P01137 30-390 limits assumed, one chain of several) above
The test is described as follows: Octet BLI, IgG captured. The method, then:
as §1

The target of test [8] is T6, mouse LTBP3-proTGFβ1 complex (mouse, UniProt Q61810 41-1245; P04202 30-390, limits assumed).
T6 construct: Exemplary entries; also called Mo LTBP3-proTGFβ1; Murine LTBP3 proTGFb1
T6 sequence (Q61810 other isoform, or with tags, fused parts or gaps limits assumed, chain 1 of 2): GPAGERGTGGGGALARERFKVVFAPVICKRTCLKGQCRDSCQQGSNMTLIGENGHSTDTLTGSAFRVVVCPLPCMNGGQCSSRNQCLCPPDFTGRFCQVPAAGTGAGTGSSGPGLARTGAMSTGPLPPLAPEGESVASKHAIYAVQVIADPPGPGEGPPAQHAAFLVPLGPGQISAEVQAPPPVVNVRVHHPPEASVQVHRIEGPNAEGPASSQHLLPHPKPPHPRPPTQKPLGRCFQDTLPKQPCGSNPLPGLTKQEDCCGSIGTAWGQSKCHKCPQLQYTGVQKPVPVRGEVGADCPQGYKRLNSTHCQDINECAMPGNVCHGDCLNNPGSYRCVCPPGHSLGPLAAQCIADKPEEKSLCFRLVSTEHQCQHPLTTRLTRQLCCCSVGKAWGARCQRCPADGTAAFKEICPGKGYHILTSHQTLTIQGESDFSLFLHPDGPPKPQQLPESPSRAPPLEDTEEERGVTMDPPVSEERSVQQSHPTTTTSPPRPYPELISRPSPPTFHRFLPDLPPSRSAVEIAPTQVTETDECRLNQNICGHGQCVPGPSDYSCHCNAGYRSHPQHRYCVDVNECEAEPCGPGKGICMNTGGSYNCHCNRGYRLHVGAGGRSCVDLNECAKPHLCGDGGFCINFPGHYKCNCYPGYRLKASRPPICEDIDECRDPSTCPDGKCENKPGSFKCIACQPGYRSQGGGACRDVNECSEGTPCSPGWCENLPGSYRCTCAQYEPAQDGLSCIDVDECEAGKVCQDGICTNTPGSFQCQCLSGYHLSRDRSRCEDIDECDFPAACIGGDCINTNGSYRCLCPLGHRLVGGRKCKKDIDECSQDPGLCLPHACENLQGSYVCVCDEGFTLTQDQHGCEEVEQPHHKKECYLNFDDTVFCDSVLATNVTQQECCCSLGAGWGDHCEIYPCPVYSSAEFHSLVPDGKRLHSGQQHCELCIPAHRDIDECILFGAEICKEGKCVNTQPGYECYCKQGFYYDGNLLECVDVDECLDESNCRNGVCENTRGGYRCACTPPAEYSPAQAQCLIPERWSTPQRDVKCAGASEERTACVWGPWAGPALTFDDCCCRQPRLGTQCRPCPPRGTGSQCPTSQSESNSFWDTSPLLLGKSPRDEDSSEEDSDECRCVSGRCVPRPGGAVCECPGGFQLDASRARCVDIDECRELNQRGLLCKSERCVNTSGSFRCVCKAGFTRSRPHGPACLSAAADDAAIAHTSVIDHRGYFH
T6 sequence (P04202 30-390 limits assumed, chain 2 of 2): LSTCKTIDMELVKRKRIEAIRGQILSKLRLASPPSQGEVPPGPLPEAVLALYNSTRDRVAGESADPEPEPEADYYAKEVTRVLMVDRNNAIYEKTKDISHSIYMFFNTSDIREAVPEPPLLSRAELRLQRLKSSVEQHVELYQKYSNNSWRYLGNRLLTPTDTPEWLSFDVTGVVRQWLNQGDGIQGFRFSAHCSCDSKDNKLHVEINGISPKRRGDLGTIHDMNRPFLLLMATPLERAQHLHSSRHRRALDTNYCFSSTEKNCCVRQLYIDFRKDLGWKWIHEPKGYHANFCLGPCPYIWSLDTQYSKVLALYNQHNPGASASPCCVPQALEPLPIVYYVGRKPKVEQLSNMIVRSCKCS
The test is described as follows: Octet BLI, IgG captured. The method, then:
as §1

T3 sequence (Q8CG19 339-1712 limits assumed, chain 1 of 2): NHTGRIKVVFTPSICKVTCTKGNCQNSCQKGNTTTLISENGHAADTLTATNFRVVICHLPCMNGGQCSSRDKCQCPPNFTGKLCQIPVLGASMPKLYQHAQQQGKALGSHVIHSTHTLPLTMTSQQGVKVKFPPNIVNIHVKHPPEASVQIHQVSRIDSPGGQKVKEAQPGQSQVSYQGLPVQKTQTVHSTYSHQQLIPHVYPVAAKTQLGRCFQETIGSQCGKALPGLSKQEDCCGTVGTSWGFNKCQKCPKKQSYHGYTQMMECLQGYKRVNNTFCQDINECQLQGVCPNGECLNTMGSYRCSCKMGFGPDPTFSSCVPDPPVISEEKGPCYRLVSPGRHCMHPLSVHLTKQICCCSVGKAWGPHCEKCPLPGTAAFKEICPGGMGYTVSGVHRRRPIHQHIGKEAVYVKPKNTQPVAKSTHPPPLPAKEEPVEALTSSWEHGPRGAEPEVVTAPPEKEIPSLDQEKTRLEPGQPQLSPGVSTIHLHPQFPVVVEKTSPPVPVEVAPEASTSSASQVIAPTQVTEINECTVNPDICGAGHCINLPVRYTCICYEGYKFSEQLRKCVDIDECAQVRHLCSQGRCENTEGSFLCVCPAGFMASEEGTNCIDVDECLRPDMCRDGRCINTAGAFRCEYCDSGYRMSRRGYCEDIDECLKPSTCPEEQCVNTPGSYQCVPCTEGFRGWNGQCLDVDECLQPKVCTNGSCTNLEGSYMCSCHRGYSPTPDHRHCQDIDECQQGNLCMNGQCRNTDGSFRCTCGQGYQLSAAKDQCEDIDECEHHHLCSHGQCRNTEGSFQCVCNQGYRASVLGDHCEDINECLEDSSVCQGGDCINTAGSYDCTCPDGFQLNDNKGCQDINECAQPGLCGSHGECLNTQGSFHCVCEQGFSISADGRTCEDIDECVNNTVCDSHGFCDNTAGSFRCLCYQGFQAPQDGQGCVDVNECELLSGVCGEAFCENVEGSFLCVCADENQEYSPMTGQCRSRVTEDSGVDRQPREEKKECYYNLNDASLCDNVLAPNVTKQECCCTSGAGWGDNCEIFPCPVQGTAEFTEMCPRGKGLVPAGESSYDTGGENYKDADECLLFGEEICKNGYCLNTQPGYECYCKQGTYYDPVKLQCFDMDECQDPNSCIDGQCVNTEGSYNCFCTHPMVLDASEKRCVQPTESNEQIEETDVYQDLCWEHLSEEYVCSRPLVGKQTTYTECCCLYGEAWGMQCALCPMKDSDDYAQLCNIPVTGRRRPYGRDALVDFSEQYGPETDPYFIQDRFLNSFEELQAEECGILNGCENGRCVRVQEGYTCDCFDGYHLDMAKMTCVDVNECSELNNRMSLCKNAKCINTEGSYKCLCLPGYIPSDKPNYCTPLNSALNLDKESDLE
T3 sequence (P04202 30-390 limits assumed, chain 2 of 2): as the sequence (P04202 30-390 limits assumed, chain 2 of 2) above
Chain of LTBP-proTGFβ1: transfected human proTGFβ1 presented by endogenous LTBP1/3 of LN229 cells (human) (P01137 30-390): as the sequence (P01137 30-390 limits assumed, one chain of several) above

B1: SR-AB23 (antibody, IgG1, V domains shown)
VH: QVQLVESGGGVVQPGRSLRLSCAASGFTFRSYVMHWVRQAPGKGLEWVAVISHEGSLKYYADSVKGRFTISRDNSKNTLYLQMNSLRAEDTAVYYCARPRIAARRGGFGYWGQGTLVTVSS
VL: NFMLTQPHSVSESPGKTVTISCTRSSGNIDNNYVQWYQQRPGSSPTTVIYEDNQRPSGVPDRFSGSIDSSSNSASLTISGLKTEDEADYYCQSYDSDNQGVVFGGGTKLTVL
notes: Cycle 2, lineage SR-AB14
Turning to B1, the binding result in test [1] is listed as “no binding”; in test [2], “no binding (tested: 200 nM)”. In addition, the “IC50, mLTBP1 assay (CAGA12 luciferase)” value in test [3] was 0.946 nM. The “IC50, endogenous hLTBP assay (CAGA12 luciferase)” value in test [4] was 6.04 nM. Moreover, the Kd in test [5] was 5.98 nM; in test [6] it was 8.38 nM; in test [7], 1.26 nM; in test [8], 7.93 nM.

One may read the Kd as the concentration at which binding is half-saturated.
